B1: PKD2L1 (parent)
chain: SGPEAARAGGWVSGEEFYMLTRRV
B2: SMTNL2 (parent)
chain: QKNFELAFTMAENLANCERLIEVE

Variants of: B1
Assay: protein stability index of a GFP-peptide fusion (GPS, HEK-293T) (PSI 1-6); higher = more stable
Settings: c terminus: a fixed tail appended
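Further: lentivirally expressed fusions sorted by FACS into six bins by GFP to DsRed ratio, PSI derived from sequencing read proportions per bin multiplied by bin number.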

Protein stability index: each site, then its substitutions
G2: P 2.08; K 1.8; A 2; E 3.1; F 1.83; H 2.17; S 2.19; W 2.91; N 2.93; M 3.57; V 2.27; C 1.67; T 2.94; Q 2.64; Y 1.72; D 2.24; R 2.24
P3: D 2.04; G 2.63; H 2.32; F 1.83; A 2.38; E 2.43; I 2.16; C 2.11
S1: V 2.67; A 2.81; T 2.68; M 2.04; H 2.53; Y 1.46; L 1.5; N 2.65; K 2.75; Q 3.02; W 2.85; E 2.68; F 1.12; D 2.35; I 2.64; P 2.35

Variants of: B2
Assay: as above
Settings: c terminus: a fixed tail appended

Protein stability index: each site, then its substitutions
E24: N 2.11; L 1.56; F 3.44; V 1.45; S 1.36; M 1.89; P 2.15; A 2.84; Q 1.33; K 2.22; T 1.95; H 1.6; I 1.03; D 1.62; G 2.13; C 1.42; R 2.4; Y 2.13
A7: V 1.77; F 1.88; C 2.56; M 1.73; P 3.32; L 1.22; W 2.26; T 2.2; Y 2.08; E 1.68; Q 2.58; D 2.85; S 1.78; H 2.16; K 2.98
I21: V 2.96; E 4.62; S 4.54; M 2.61; A 3.25; D 4.39; N 3.95; C 3.27; F 2.29; Q 3.72; Y 2.99; K 3.46; H 3.17; W 3.67; T 4.29; P 4.14; G 3.85; R 2.44
A11: H 3.39; D 3.85; Q 1.62; P 3.85; S 2.79; G 2.04; W 2.75; I 4.18; N 2.82; R 3.03; M 1.49; C 3.46; K 2.29; E 3.78
E12: V 3.63; I 1.74; T 1.86; L 2.69; K 2.05; R 1.33; G 1.98; N 2.6; S 4; H 2.01; P 2.26; Q 1.87; D 1.8; W 3.4
N13: K 1.95; P 3.63; I 2.98; T 1.8; Q 1.68; C 2.69; H 1.41; Y 2.99; V 1.33; W 2; R 1.67; E 2.21; L 1.98; S 2.33; F 2.82; G 2.19
V23: Q 1.3; I 1.78; M 4.25; T 3.11; P 2.98; G 2.04; K 1.66; D 1.77; F 2.36; Y 3.99; R 2.21; N 1.69; C 2.21; H 2.73; E 2.93; L 2.34; S 2.25; A 2.18; W 1.63
M10: H 3.91; N 4.24; I 1.57; L 1.66; K 3.9; C 3.37; E 4.17; P 3.66; Q 4.38; D 4.64; R 3.77; A 3.87; F 3.08; V 3.29; T 3.66; W 1.41; S 3.88; Y 3.45; G 4.33
L14: N 2.72; A 3.7; M 2.02; F 3.11; K 3.8; D 4.44; E 4.23; W 2.26; I 2.89; V 3.19; T 3.79; Y 3.37; S 3.69; Q 3.98; P 3.89; H 3.53; R 3.92; C 3.14
R19: T 2.61; F 2.86; C 1.83; I 2.57; H 1.97; N 3.03; A 1.84; Q 1.9; M 2.86; G 2.92; K 1.52; S 2.55; L 1.55; E 3.33; V 1.27; W 3.89; P 3.57
A15: V 2.83; M 1.92; L 1.52; D 3.49; Y 1.84; C 2.46; R 1.38; E 3.11; P 2.93; Q 1.42; F 1.45; S 1.46; I 1.87; G 2.67; T 1.32; H 2.1; N 2.04
L20: C 2.1; R 2.12; V 1.27; K 2.46; M 1.35; D 4.42; Q 1.61; G 2.97; W 1.38; H 2.69; N 4.06; S 3.52; T 2.25; E 2.92; A 2.55; Y 2.08; I 2.31; P 3.58; F 2.15
T9: V 2.5; W 2.96; G 2.02; K 1.39; R 1.13; N 2.37; I 3.12; D 2.74; Q 1.89; C 2.03; Y 2.57; E 2.9; S 1.98; H 1.96; P 3.3; A 1.37
C17: K 3.5; I 2.14; A 2.16; Y 2.78; P 4.29; F 2.14; G 2.98; D 3.98; T 1.39; Q 2.79; M 2.83; R 3.51; S 2.28; V 2.02; N 4.09; H 3.37
F8: S 1.45; E 3.82; T 2.6; P 4.98; N 2.06; V 2.12; D 4.41; W 1.48; H 2.33; C 1.07; G 4.29; Q 3.61; Y 1.35
E22: P 2.82; G 1.55; C 2.79; M 2.94; A 3.4; T 3.65; D 1.72; I 2.9; K 2.71; H 1.88; N 1.68
N16: F 1.36; Q 2.33; V 2.61; C 1.85; Y 2.33; L 2.73; W 3.51; R 1.44; P 2.8; I 2.83; K 3.84; M 1.34; E 2.89
L6: S 2.19; V 2.04; T 2.01
E18: I 4.4; P 2.6; C 2.68; S 2.65; Y 3.75; A 2.09; K 2.04; M 2.73; R 1.85; D 2.98; Q 1.97; G 1.84; L 1.59; T 2.18; V 1; N 2.22; H 2.64

— the supplement of paper PMC10567573
